Experimental data as given in publication PMC8460140 (2021).

T1: His6-tagged CB1R-CTD (amino acids 400-472), labeled with 5-IAF (UniProt P21554 400-472, labeled with 5-(iodoacetamido)fluorescein (5-IAF); labeled residue not stated)
T1 chain: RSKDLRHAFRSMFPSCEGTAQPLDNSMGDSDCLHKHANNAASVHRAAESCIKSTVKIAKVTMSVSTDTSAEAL

B1: His6-tagged BiP-IR (amino acids 497-654), recombinant (domain or fragment)
chain: IEVTFEIDVNGILRVTAEDKGTGNKNKITITNDQNRLTPEEIERMVNDAEKFAEEDKKLKERIDTRNELESYAYSLKNQIGDKEKLGGKLSSEDKETMEKAVEEKIEWLESHQDADIEDFKAKKKELEEIVQPIISKLYGSAGPPPTGEEDTAEKDEL
B2: His6-tagged BiP, recombinant (natural protein)
chain: not shown

Molecular target: T1, His6-tagged CB1R-CTD (amino acids …)
Experiment: FP

Binder	Kd [µM]
B1	17.3
B2	17.7
